For series [1], the target named is T1, myostatin (Homo sapiens, UniProt O14793).
T1 construct: To produce mature myostatin, the pooled promyostatin was enzymatically cleaved between the propeptide and mature myostatin C terminal; made in house; host or cells: E. coli K-12 strain 2596 (ATCC # 202174)
T1 sequence (O14793 267-375): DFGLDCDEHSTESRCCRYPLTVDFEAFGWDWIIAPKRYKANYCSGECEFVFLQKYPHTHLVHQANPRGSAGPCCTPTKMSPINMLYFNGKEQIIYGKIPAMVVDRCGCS
The series is described as follows: C2C12 pMARE-luc cell based myostatin activity assay. The source says: A myostatin-responsive reporter cell line was generated by transfection of C2C12 myoblast cells (ATCC No: CRL-1772) with a pMARE-luc construct. The pMARE-luc construct was made by cloning twelve repeats of the CAGA sequence, representing the myostatin/activin response elements (Dennler et al. EMBO 17: 3091-3100 (1998)) into a pLuc-MCS reporter vector (Stratagene cat #219087) upstream of the TATA box. The myoblast C2C12 cells naturally express myostatin/activin receptors on its cell surface. When myostatin binds the cell receptors, the Smad pathway is activated, and phosphorylated Smad binds to the response element (Macias-Silva et al. Cell 87:1215 (1996)), resulting in the expression of the lucerase gene. Luciferase activity is then measured using a commercial luciferase reporter assay kit (cat #E4550, Promega, Madison, Wis.) according to manufacturer's protocol. A stable line of C2C12 cells that had been transfected with pMARE-luc (C2C12/pMARE clone #44) was used to measure myostatin activity according to the following procedure.
Equal numbers of the reporter cells (C2C12/pMARE clone #44) were plated into 96 well cultures. A first round screening using two dilutions of peptibodies was performed with the myostatin concentration fixed at 4 nM. Recombinant mature myostatin was pre-incubated for 2 hours at room temperature with peptibodies at 40 nM and 400 nM respectively. The reporter cell culture was treated with the myostatin with or without peptibodies for six hours. Myostatin activity was measured by determining the luciferase activity in the treated cultures. This assay was used to initially identify peptibody hits that inhibited the myostatin signaling activity in the reporter assay. Subsequently, a nine point titration curve was generated with the myostatin concentration fixed at 4 nM. The myostatin was preincubated with each of the following nine concentrations of peptibodies: […], 0.4 nM, 4 nM, 20 nM, 40 nM, 200 nM, 400 nM, 2 uM and 4 uM for two hours before adding the mixture to the reporter cell culture. The IC50 values were for a number of exemplary peptibodies are provided in Tables III and for affinity matured peptibodies, in Table VIII.

The nature of series [2]: In vivo pharmacokinetics in CD1 nu/nu mice. Also noted: species or system mouse. Conditions: peptibodies without LE sequences, 10 mg/kg and 5 mg/kg. How it is done: In vivo pharmacokinetics experiments were performed using representative peptibodies without the LE sequences. 10 mg/kg and 5 mg/kg dosages were administered to CD1 nu/nu mice and the following parameters determined. Cmax (ug/mL), area under the curve (AUC) (ug-hr/mL), and half-life (hr).

The next series relates to CD1 nu/nu mice. The series is described as follows: In vivo anabolic activity in CD1 nu/nu mouse model. The following applies: CD1 nu/nu male mice; 1 and 3 mg/kg twice weekly, 35 days; 2× vs 1× peptibody or control. The source says:
The CD1 nu/nu mouse model (Charles River Laboratories, Massachusettes) was used to determine the in vivo efficacy of the peptibodies of the present invention which included the human Fc region (huFc). This model responded to the inhibitors of the present invention with a rapid anabolic response which was associated with increased dry muscle mass and an increase in myofibrillar proteins but was not associated with accumulation in body water content.
A group of 10 8 week old CD1 nu/nu mice were treated twice weekly or once weekly with dosages of 1 mg/kg, 3 mg/kg and 10 mg/kg (subcutaneous injection). The control group of 10 8 week old CD1 nu/nu mice received a twice weekly (subcutaneous) injection of huFc (vehicle) at 10 mg/kg. The animals were weighed every other day and lean body mass determined by NMR on day 0 and day 13. The animals are then sacrificed at day 14 and the size of the gastrocnemius muscle determined.
In another example, the 1×mTN8-19-32 peptibody was administered to CD1 nu/nu mice in a biweekly injection of 1 mg/kg, 3 mg/kg, 10 mg/kg, and 30 mg/kg compared with the huFc control (vehicle).
CD1 nu/nu male mice (10 animals per group) were treated with twice weekly injections of 1 mg/kg and 3 mg/kg of 1×mTN8-19-7 and 2×mTN8-19-7 for 35 days, while the control group (10 animals) received twice weekly injections of huFc (3 mg/kg).

For another series, the system named is C57B1/6 mice. The series is described as follows: Gripping strength in normal C57B1/6 mice. Type of series: in vivo, mouse. The following applies: 30 days s.c. 5 mg/kg per week, measured day 18 of recovery. How it is done:
The animals were allowed to recover without any further injections. Gripping strength was measured on day 18 of the recovery period. Griping strength was measured using a Columbia Instruments meter, model 1027 dsm (Columbus, Ohio).

In series [3] the target is T1, myostatin. Description: BIAcore affinity analysis on immobilized myostatin. Format: binding. Conditions: Biacore assay; Table III. How it is done:
An affinity analysis of each candidate myostatin peptibody was performed on a BIAcore®3000 (Biacore, Inc., Piscataway, N.J.), apparatus using sensor chip CM5, and 0.005 percent P20 surfactant (Biacore, Inc.) as running buffer.
Direct binding assays were used to screen and rank the peptibodies in order of their ability to bind to immobilized myostatin. Binding assays were carried by injection of two concentrations (40 and 400 nM) of each candidate myostatin-binding peptibody to the immobilized myostatin surface at a flow rate of 50 μl/min for 3 minutes. After a dissociation time of 3 minutes, the surface was regenerated. Binding curves were compared qualitatively for binding signal intensity, as well as for dissociation rates. Peptibody binding kinetic parameters including ka (association rate constant), kd (dissociation rate constant) and KD (dissociation equilibrium constant) were determined using the BIA evaluation 3.1 computer program (Biacore, Inc.). The lower the dissociation equilibrium constants (expressed in nM), the greater the affinity of the peptibody for myostatin.

[4] abbreviates: pMARE luc cell-based assay, Table III.
[5] abbreviates: affinity matured peptibodies, a range of values is given.

Changes are numbered by the printed parent chain.

The source of these data is patent publication US20110008375A1, “Uses of Myostatin Antagonists” (AMGEN INC., priority 2005, published 2011).

Consider “L2: peptibody: peptide MEMLDSLFELLKDMVPISKA fused to human IgG1 Fc”, for which, in the series with myostatin [1], the “inhibition of myostatin activity in cell-based assay” value is “inhibit myostatin activity”.

Consider “Linear-20: peptibody: peptide YREMSMLEGLLDVLERLQHY fused to human IgG1 Fc”, for which, in the series with myostatin [1] (setting [4]), the IC50 (in general, the concentration at which inhibition is half-maximal) is ~11 nM.

On to “TN12-34: peptibody: peptide AHWCEQGPWRYGNICMAY fused to human IgG1 Fc”, for which, in the series with myostatin [1] (setting [4]), the IC50 is ~30 nM.

For the molecule mL15-7 (QVDSLQQVLLWLEHKLALGPQV), the IC50 with myostatin [1] (setting [5]) was found to be 32.8 nM.

In the series with myostatin [1] (setting [5]), mL15-9 (QIEMLESLLDLLRDMVPMSNAF) returned an IC50 of 354 nM.

For the molecule mL20-2 (TQRDMSMLDGLLEVLDQLRQQR), in the series with myostatin [1] (setting [5]), the IC50 was 123 nM.

In the case of mL20-3 (TSRDMSLLWELLEELDRLGHQR), the IC50 with myostatin [1] (setting [5]) came out at 158 nM.

In the series with myostatin [1] (setting [5]), mL20-4 (MQHDMSMLYGLVELLESLGHQI) registered an IC50 of 160 nM.

Turning to mTN8-19-2 (YPEQGLCTRWPWMCPPQTLA), the IC50 with myostatin [1] (setting [5]) fell in the range of 7.51 to 34.4 nM.

mTN8-19-4 (MITQGQCTRWPWMCPPQPSG): half-maximal inhibition with myostatin [1] (setting [5]) (IC50) was put at 16.7 nM.

The molecule mTN8-19-5 (AGAQEHCTRWPWMCAPNDWI) registered an IC50 with myostatin [1] (setting [5]) of 3.5 to 7.74 nM.

mTN8-19-6 (GVNQGQCTRWRWMCPPNGWE) yielded an IC50 with myostatin [1] (setting [5]) of 17.3 nM.

With mTN8-19-9 (TQTHAQCTRWPWMCPPQWEG), in the series with myostatin [1] (setting [5]), the IC50 lay in the range of 18.8 to 23 nM.

For the molecule mTN8-19-10 (VVTQGHCTLWPWMCPPQRWR), the IC50 with myostatin [1] (setting [5]) was in the range of 5.25 to 7.4 nM.

In the series with myostatin [1] (setting [5]), mTN8-19-11 (IYPHDQCTRWPWMCPPQPYP) yielded a half-inhibitory concentration (IC50) of 28.7 nM.

In the case of mTN8-19-12 (SYWQGQCTRWPWMCPPQWRG), the midpoint of inhibition in the series with myostatin [1] (setting [5]), the IC50, lay at 980 nM.

With mTN8-19-13 (MWQQGHCTRWPWMCPPQGWG), the IC50 with myostatin [1] (setting [5]) was 20 nM.

On to mTN8-19-14 (EFTQWHCTRWPWMCPPQRSQ), for which the IC50 with myostatin [1] (setting [5]) lay within 4.07 to 6.56 nM.

Take mTN8-19-16 (YQTQGLCTRWPWMCPPQSQR): 4.65 nM corresponded to half-maximal inhibition in the series with myostatin [1] (setting [5]) (IC50).

mTN8-19-23 (PGAHDHCTRWPWMCPPQSRY) displayed an IC50 with myostatin [1] (setting [5]) of 6.58 nM.

Regarding mTN8-19-24 (VAEEWHCRRWPWMCPPQDWR), the IC50 with myostatin [1] (setting [5]) lay in the range of 1.67 to 2.93 nM.

Turning to mTN8-19-27 (ADTQGHCTRWPWMCPPQHWF), the IC50 with myostatin [1] (setting [5]) is 4.84 to 4.92 nM.

In turn, mTN8-19-28 (SGPQGHCTRWPWMCAPQGWF) showed an IC50 in the series with myostatin [1] (setting [5]) of 4.39 nM.

In the series with myostatin [1] (setting [5]), mTN8-19-29 (TLVQGHCTRWPWMCPPQRWV) registered a half-inhibitory concentration (IC50) of 6.36 nM.

In the series with myostatin [1] (setting [5]), mTN8-19-34 (IPAHGHCTRWPWMCPPQRWR) displayed a concentration for half-maximal inhibition (IC50) of 5.03 to 5.07 nM.

B1: 2x mTN8-19-7: affinity matured 2× peptibody (two peptides in tandem), TN8-19 family, human Fc (protein)
chain: GGGGGAQLADHGQCIRWPWMCPPEGWELEGSGSATGGSGSTASSGSGSATGLADHGQCIRWPWMCPPEGWELE
modifications: Peptibody
Regarding B1, the half-life entry in series [2] is “about 106 hours”. In the series with CD1 nu/nu mice, the “body weight gain (FIG. 5)” value is “greater body weight gain” and the “lean carcass weight at necropsy (FIG. 5)” value is given as “greater”. Also, in the series on C57B1/6 mice, the “increase in gripping strength compared with control-treated mice” value was found to be 15%.

B2: 2xmTN8-19-7 (protein)
chain: B1 chain
modifications: Peptibody
With B2, in the series with myostatin [1] (setting [5]), the IC50 lay within 0.857 to 2.65 nM.

B3: ActRIIB/Fc: soluble receptor fusion protein actRIIB/Fc (R&D Systems), recombinant human activin receptor IIB/Fc chimera (protein)
chain: SGRGEAETRECIYYNANWELERTNQSGLERCEGEQDKRLHCYASWRNSSGTIELVKKGCWLDDFNCYDRQECVATEENPQVYFCCCEGNFCNERFTHLPEAGGPEVTYEPPPTAPT
modifications: left off: a dimerising Fc or GST
With B3, in the series with myostatin [3], the Kd (in general, the free concentration of one partner at which half of the binding sites on the other are occupied at equilibrium, for simple one-to-one binding) was ~7 nM.

B4: 2x mTN8-19-33: affinity matured 2× peptibody of the TN8-19 family, human Fc (protein)
chain: GGGGGAQPESQGHCTRWPWMCPPQGWGLEGSGSATGGSGSTASSGSGSATGPESQGHCTRWPWMCPPQGWGLE
modifications: Peptibody
On to B4, for which the “increase in gripping strength compared with control-treated mice” value in the series with C57B1/6 mice was found to be 14%.

B5: 2xmTN8-19-21 (protein)
chain: B4 chain with P8S, S10Y, H13L, G27K, P52S, S54Y, H57L, G71K
modifications: Peptibody
Consider B5, for which the IC50 in the series with myostatin [1] (setting [5]) is 0.828 to 1.43 nM.

B6: 2×mTN8-19-22: affinity matured 2× peptibody of the TN8-19 family, human Fc (protein)
chain: B4 chain with P8T, E9F, P52T, E53F
As for B6, the half-life result in series [2] was “about 85.2 hours”.

B7: 2xmTN8-19-22 (protein)
chain: B4 chain with P8T, E9F, P52T, E53F
modifications: Peptibody
B7: in the series with myostatin [1] (setting [5]), the half-inhibitory concentration (IC50) was in the range of 0.994 to 1.22 nM.
